Measured values: patent US20250002610A1 (Genmab, published 2025)

T1: human DR4 (Death Receptor 4), cell surface expressed on human tumor cell lines (human, UniProt O00220 24-468)
T1 construct: also called TNFRSF10A; TRAIL-R1
T1 sequence: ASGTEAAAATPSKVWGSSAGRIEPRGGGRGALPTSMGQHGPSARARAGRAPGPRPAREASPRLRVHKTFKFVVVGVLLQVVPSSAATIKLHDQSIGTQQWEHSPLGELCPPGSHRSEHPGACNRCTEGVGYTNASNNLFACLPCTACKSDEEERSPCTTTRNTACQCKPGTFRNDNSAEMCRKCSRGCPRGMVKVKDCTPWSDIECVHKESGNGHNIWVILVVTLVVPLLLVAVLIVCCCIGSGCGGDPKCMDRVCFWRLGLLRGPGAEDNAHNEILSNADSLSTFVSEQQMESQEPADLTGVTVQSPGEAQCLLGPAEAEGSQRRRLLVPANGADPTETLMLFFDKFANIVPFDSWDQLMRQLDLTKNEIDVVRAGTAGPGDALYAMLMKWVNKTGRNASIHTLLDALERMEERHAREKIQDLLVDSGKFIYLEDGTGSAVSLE

B1: IgG1-DR4-chCTB007-FEAR (antibody, V domains shown)
VH: EVQLQQSGAELVKPGASVKLSCTASGFNIKDTYMHWVKQRPEQGLEWIGRIDPANGNTKYDPKFQGKATITADTSSNTAYLQLSSLTSEDTAVYYCAYYYVSNAWFTYWGQGTLVTVSA
VL: DIQMTQSPASLSVSVGETVTITCRASENIYSNLEWYQQKQGKSPQLLVYAATNLADGVPSRFSGSGSGTQYSLKINSLQSEDFGSYYCQHFWGTWTFGGGTKLEIKR
notes: Prior art DR4 clone (US20090136503A1)
B2: BisG1-b12-FEAL/DR4-T1014A04-FEAR (bispecific antibody, human IgG1, kappa, lambda)
heavy 1: QVQLVQSGAEVKKPGASVKVSCQASGYRFSNFVIHWVRQAPGQRFEWMGWINPYNGNKEFSAKFQDRVTFTADTSANTAYMELRSLRSADTAVYYCARVGPYSWDDSPQDNYYMDVWGKGTTVIVSSASTKGPSVFPLAPSSKSTSGGTAALGCLVKDYFPEPVTVSWNSGALTSGVHTFPAVLQSSGLYSLSSVVTVPSSSLGTQTYICNVNHKPSNTKVDKRVEPKSCDKTHTCPPCPAPEFEGGPSVFLFPPKPKDTLMISRTPEVTCVVVAVSHEDPEVKFNWYVDGVEVHNAKTKPREEQYNSTYRVVSVLTVLHQDWLNGKEYKCKVSNKALPAPIEKTISKAKGQPREPQVYTLPPSREEMTKNQVSLTCLVKGFYPSDIAVEWESNGQPENNYKTTPPVLDSDGSFLLYSKLTVDKSRWQQGNVFSCSVMHEALHNHYTQKSLSLSPG
light 1: EIVLTQSPGTLSLSPGERATFSCRSSHSIRSRRVAWYQHKPGQAPRLVIHGVSNRASGISDRFSGSGSGTDFTLTITRVEPEDFALYYCQVYGASSYTFGQGTKLERKRTVAAPSVFIFPPSDEQLKSGTASVVCLLNNFYPREAKVQWKVDNALQSGNSQESVTEQDSKDSTYSLSSTLTLSKADYEKHKVYACEVTHQGLSSPVTKSFNRGEC
heavy 2: EVQLVQSGADVKRPGASVKVSCKISGDSFNAYFIHWVRQAPGQGLEWMGWFNPDSGTADSAQKFHGRVTMTRDTSSSTAFLELSRLRSDDTAVYYCVRQHRGNTFAPWGRGTMVTVSSASTKGPSVFPLAPSSKSTSGGTAALGCLVKDYFPEPVTVSWNSGALTSGVHTFPAVLQSSGLYSLSSVVTVPSSSLGTQTYICNVNHKPSNTKVDKRVEPKSCDKTHTCPPCPAPEFEGGPSVFLFPPKPKDTLMISRTPEVTCVVVAVSHEDPEVKFNWYVDGVEVHNAKTKPREEQYNSTYRVVSVLTVLHQDWLNGKEYKCKVSNKALPAPIEKTISKAKGQPREPQVYTLPPSREEMTKNQVSLTCLVKGFYPSDIAVEWESNGQPENNYKTTPPVLDSDGSFFLYSRLTVDKSRWQQGNVFSCSVMHEALHNHYTQKSLSLSPG
light 2: QSVLTQPPSASGSPGQSVTISCTGTTSDVGGYNYVSWYQQHPGKAPKLMIYGVNQRPSGVPDRFSGSKSGNTASLTVSGLQAEDEADYYCSSYAGSNNWVFGGGTKLTVLGQPKAAPSVTLFPPSSEELQANKATLVCLISDFYPGAVTVAWKADSSPVKAGVETTTPSKQSNNKYAASSYLSLTPEQWKSHRSYSCQVTHEGSTVEKTVAPTECS
notes: Fab-arm exchange of IgG1-b12-FEAL and IgG1-DR4-T1014A04-FEAR

What was measured:
[1] = molecular target: T1, human DR4 (Death Receptor 4), cell …; experiment: flow cytometry, MDA-MB-231 cells, average ± SEM
[2] = molecular target: T1, human DR4 (Death Receptor 4), cell …; experiment: flow cytometry, MDA-MB-231 cells, N = 1
[3] = molecular target: T1, human DR4 (Death Receptor 4), cell …; experiment: flow cytometry, MDA-MB-231 cells, N = 2
[4] = molecular target: T1, human DR4 (Death Receptor 4), cell …; experiment: flow cytometry on OPM-2 cells (endogenous DR4), gMFI PE
Protocol: Immunol. […] Human lung fibroblasts and CAFs (50,000 cells/well) were seeded in 96-Well round bottom plates (Greiner Bio-one, Cat #650101). Antibody dilutions were prepared using fluorescence-activated cell sorting (FACS) buffer, consisting of phosphate buffer saline (PBS, Lonza, Cat #BE17-517Q)+1% Bovine Serum Albumin (BSA, Roche, Cat #10735086001)+0.02% Sodium Azide (Bio-World, Cat #41920044-3). Plates were centrifuged, supernatant was removed, cells were resuspended in 50 μL of human Fc Block (BD, Cat #564220, diluted 1:100 in FACS buffer) and 50 μL of viability stain TO-PRO-3 Iodide (Thermo Fisher, Cat #T3605, diluted 1: 25,000 in FACS buffer), and incubated for 15 min at 4° C. Plates were washed three times with FACS buffer. […] Antibody binding to viable cells (TO-PRO-3 negative) was analyzed by flow cytometry on a FACSCelesta™ (BD biosciences) and data were processed using FlowJo_v10.8.1 (FlowJo LLC). Geomean fluorescence intensity, gMFI, was determined and visualized using GraphPad Prism. Binding curves were analyzed using nonlinear regression analysis. […]
Binding of DR4-specific antibodies BisG1-b12-FEAL/DR4-T1014A04-FEAR, BisG1-b12-FEAL/DR4-chCTB007-FEAR, IgG1-DR4-chCTB007-FEAR and IgG1-DR4-T1014A04-FEAR to cell surface expressed human DR4 was analyzed by flow cytometry using the human cancer cell line OPM-2 (DSMZ, Cat #ACC 50), which endogenously expresses DR4.

[5] = molecular target: T1, human DR4 (Death Receptor 4), cell …; experiment: flow cytometry, MDA-MB-231 cells, N = 1; MDA-MB-231 cells, up to 90 µg/mL, N = 1
[6] = molecular target: T1, human DR4 (Death Receptor 4), cell …; experiment: flow cytometry, MDA-MB-231 cells, average ± SEM; MDA-MB-231 cells, up to 90 µg/mL, average of N = 2
[7] = molecular target: T1, human DR4 (Death Receptor 4), cell …; experiment: flow cytometry, MDA-MB-231 cells, N = 2; MDA-MB-231 cells, up to 90 µg/mL, N = 2

Binder | EC50 [1] | Max MFI (at 90 µg/mL) [1] | EC50 [2] | Max MFI (at 90 µg/mL) [2] | EC50 [3] | Max MFI (at 90 µg/mL) [3] | EC50 (read off the curve) [4] | EC50 [5] | EC50 [6] | EC50 [7]
B1 | 0.06 µg/mL | 3620 MFI | 0.04 µg/mL | 3750 MFI | 0.08 µg/mL | 3480 MFI | ~0.05 µg/mL |  |  | 
B2 |  |  |  |  |  |  |  | 4.33 µg/mL | 5.35 µg/mL | 6.36 µg/mL
